For experiment [1], the target named is T1, Recombinant human Guanylate Cyclase 1 (human, UniProt Q02846 52-1103).
T1 sequence (looked up): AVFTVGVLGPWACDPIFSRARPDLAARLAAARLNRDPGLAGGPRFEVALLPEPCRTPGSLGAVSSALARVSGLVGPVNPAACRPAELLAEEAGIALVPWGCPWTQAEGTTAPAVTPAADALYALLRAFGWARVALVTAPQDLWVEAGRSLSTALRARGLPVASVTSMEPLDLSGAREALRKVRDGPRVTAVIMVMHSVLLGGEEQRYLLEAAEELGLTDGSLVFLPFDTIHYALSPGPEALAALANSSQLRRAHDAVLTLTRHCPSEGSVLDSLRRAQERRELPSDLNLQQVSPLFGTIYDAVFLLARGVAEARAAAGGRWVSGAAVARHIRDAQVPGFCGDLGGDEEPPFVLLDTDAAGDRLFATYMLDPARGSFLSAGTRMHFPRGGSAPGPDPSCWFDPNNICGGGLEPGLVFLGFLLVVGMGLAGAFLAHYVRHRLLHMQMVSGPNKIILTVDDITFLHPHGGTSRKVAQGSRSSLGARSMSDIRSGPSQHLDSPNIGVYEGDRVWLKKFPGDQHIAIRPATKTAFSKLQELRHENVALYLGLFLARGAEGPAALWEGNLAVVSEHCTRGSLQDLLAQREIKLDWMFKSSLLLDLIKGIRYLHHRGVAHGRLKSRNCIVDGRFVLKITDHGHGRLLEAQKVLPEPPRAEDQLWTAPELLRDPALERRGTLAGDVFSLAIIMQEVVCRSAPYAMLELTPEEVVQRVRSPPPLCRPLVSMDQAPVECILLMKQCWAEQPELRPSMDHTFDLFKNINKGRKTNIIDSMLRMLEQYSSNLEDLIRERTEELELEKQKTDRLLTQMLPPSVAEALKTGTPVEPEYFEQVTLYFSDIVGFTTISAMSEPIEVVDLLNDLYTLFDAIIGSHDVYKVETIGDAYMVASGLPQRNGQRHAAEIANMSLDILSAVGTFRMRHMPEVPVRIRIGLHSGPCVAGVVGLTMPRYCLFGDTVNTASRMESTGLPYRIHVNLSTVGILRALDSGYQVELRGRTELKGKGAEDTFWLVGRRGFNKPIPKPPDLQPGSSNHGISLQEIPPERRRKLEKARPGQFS

For experiment [2], the target named is T1, Recombinant human Guanylate Cyclase 1. The experiment in a line: cell-based or functional assay.

Results on 4 molecules are retold here after paper PMC7037459, “Constitutive Activation of Guanylate Cyclase by the G86R GCAP1 Variant Is Due to “Locking” Cation-π Interactions that Impair the Activator-to-Inhibitor Structural Transition” (International Journal of Molecular Sciences, 2020).

B1: Guanylate Cyclase activating protein 1 (GCAP1) WT (natural protein)
chain: MGNVMSGKSVEELSSTECHQWYKKFMTECPSGQLTLYEFRQFFGLKNLSPSASQYVEQMFETFDFNKDGYIDFMEYVAALSLVLKGKVEQKLRWYFKLYDVDGNGCIDRDELLTIIQAIRAINPCSDTTMTAEEFTDTVFSKIDVNGDGELSLEEFIEGVQKDQMLLDTLTRSLDLTRIVRRLQNGEQDEEGADEAAEAAG
modifications: myristoylated forms were obtained by co-transformation with yeast N-myristoyl transferase; which form stood in each experiment is not stated
Turning to B1, in experiment [1], the GC activity (cGMP synthesis) of cell membranes containing GC with ~10 µM GCAP1, 1 mM Mg2+ and 2 mM EGTA (absence of Ca2+) (nmol cGMP*min^−1*mg protein^−1) came out at 20.4; the fold decrease of cGMP synthesis at 33 µM free Ca2+ (inhibiting conditions) against the maximal activation without Ca2+ amounted to 34 fold.

B2: GCAP1 G86R+W94L (natural protein, human, UniProt P43080 1-201, looked up)
chain: MGNVMSGKSVEELSSTECHQWYKKFMTECPSGQLTLYEFRQFFGLKNLSPSASQYVEQMFETFDFNKDGYIDFMEYVAALSLVLKRKVEQKLRLYFKLYDVDGNGCIDRDELLTIIQAIRAINPCSDTTMTAEEFTDTVFSKIDVNGDGELSLEEFIEGVQKDQMLLDTLTRSLDLTRIVRRLQNGEQDEEGADEAAEAAG
modifications: myristoylated forms were obtained by co-transformation with yeast N-myristoyl transferase; which form stood in each experiment is not stated
For the molecule B2, the “fold decrease of cGMP synthesis at 33 µM free Ca2+ against the respective maximal activation without Ca2+” value in experiment [2] came to 4 fold.

B3: GCAP1 G86R+W94F (natural protein, human, UniProt P43080 1-201, looked up)
chain: MGNVMSGKSVEELSSTECHQWYKKFMTECPSGQLTLYEFRQFFGLKNLSPSASQYVEQMFETFDFNKDGYIDFMEYVAALSLVLKRKVEQKLRFYFKLYDVDGNGCIDRDELLTIIQAIRAINPCSDTTMTAEEFTDTVFSKIDVNGDGELSLEEFIEGVQKDQMLLDTLTRSLDLTRIVRRLQNGEQDEEGADEAAEAAG
modifications: myristoylated forms were obtained by co-transformation with yeast N-myristoyl transferase; which form stood in each experiment is not stated
Take B3: the “fold decrease of cGMP synthesis at 33 µM free Ca2+ against the respective maximal activation without Ca2+” value in experiment [2] worked out at 3 fold.

B4: GCAP1 G86R (natural protein, human, UniProt P43080 1-201, looked up)
chain: MGNVMSGKSVEELSSTECHQWYKKFMTECPSGQLTLYEFRQFFGLKNLSPSASQYVEQMFETFDFNKDGYIDFMEYVAALSLVLKRKVEQKLRWYFKLYDVDGNGCIDRDELLTIIQAIRAINPCSDTTMTAEEFTDTVFSKIDVNGDGELSLEEFIEGVQKDQMLLDTLTRSLDLTRIVRRLQNGEQDEEGADEAAEAAG
modifications: myristoylated forms were obtained by co-transformation with yeast N-myristoyl transferase; which form stood in each experiment is not stated
On to B4, for which the “fold decrease of cGMP synthesis at 33 µM free Ca2+ against the respective maximal activation without Ca2+” value in experiment [2] was found to be 2 fold.
